# In US20230002480A1:
# What was measured:
# Experiment in all cases: cell-based or functional assay
# [1] = molecular target: HIV-1 Env of pseudovirus BF1266.431a (clade C (T/F)) (HIV-1)
# [2] = molecular target: HIV-1 Env of pseudovirus CNE19 (clade BC) (HIV-1)
# [3] = molecular target: HIV-1 Env of pseudovirus Ce0682_E4 (clade C (T/F)) (HIV-1)
# [4] = molecular target: HIV-1 Env of pseudovirus Ce1086_B2 (clade C (T/F)) (HIV-1)
# [5] = molecular target: HIV-1 Env of pseudovirus Ce703010054_2A2 (clade C (T/F)) (HIV-1)
# [6] = molecular target: HIV-1 Env of pseudovirus Du156.12 (clade C) (HIV-1)
# [7] = molecular target: HIV-1 Env of pseudovirus PVO.4 (clade B) (HIV-1)
# [8] = molecular target: HIV-1 Env of pseudovirus Q23.17 (clade A) (HIV-1)
# [9] = molecular target: HIV-1 Env of pseudovirus QH0692.42 (clade B) (HIV-1)
# [10] = molecular target: HIV-1 Env of pseudovirus SC422661.8 (clade B) (HIV-1)
# [11] = molecular target: HIV-1 Env of pseudovirus WITO4160.33 (clade B) (HIV-1)
# [12] = molecular target: HIV-1 Env of pseudovirus ZM214M.PL15 (clade C) (HIV-1)
# [13] = molecular target: HIV-1 Env of pseudovirus BJOX025000.01.1 (clade CRF01_AE (T/F)) (HIV-1)
# [14] = molecular target: HIV-1 Env of pseudovirus BJOX028000.10.3 (clade CRF01_AE (T/F)) (HIV-1)
# [15] = molecular target: HIV-1 Env of pseudovirus C1080.c03 (clade CRF01_AE) (HIV-1)
# [16] = molecular target: HIV-1 Env of pseudovirus R1166.c01 (clade CRF01_AE) (HIV-1)
# [17] = molecular target: HIV-1 Env of pseudovirus T255-34 (clade CRF02_AG) (HIV-1)
# [18] = molecular target: HIV-1 Env pseudovirus 211-9 (HIV-1)
# [19] = molecular target: HIV-1 Env pseudovirus 3016.v5.c45 (HIV-1)
# [20] = molecular target: HIV-1 Env pseudovirus 3817.v2.c59 (HIV-1)
# [21] = molecular target: HIV-1 Env pseudovirus 6540.v4.c1 (HIV-1)
# [22] = molecular target: HIV-1 Env pseudovirus 9004SS_A3_4 (HIV-1)
# [23] = molecular target: HIV-1 Env pseudovirus A07412M1.vrc12 (HIV-1)
# [24] = molecular target: HIV-1 Env pseudovirus BJOX015000.11.5 (HIV-1)
# [25] = molecular target: HIV-1 Env pseudovirus C1080.c03 (HIV-1)
# [26] = molecular target: HIV-1 Env pseudovirus C2101.c01 (HIV-1)
# [27] = molecular target: HIV-1 Env pseudovirus C3347.c11 (HIV-1)
# [28] = molecular target: HIV-1 Env pseudovirus C4118.c09 (HIV-1)
# [29] = molecular target: HIV-1 Env pseudovirus P1981_C5_3 (HIV-1)
# [30] = molecular target: HIV-1 Env pseudovirus T278-50 (HIV-1)
# [31] = molecular target: HIV-1 Env pseudovirus X2088_c9 (HIV-1)
# [32] = molecular target: HIV-1 Env pseudovirus X2131_C1_B5 (HIV-1)
substance,measurement,setting,value
N49P11 (antibody),IC50,[1],0.998 mg/L
same,IC80,[1],7.13 mg/L
same,MPI,[1],100
same,IC50,[2],0.437 mg/L
same,IC80,[2],5.5 mg/L
same,MPI,[2],100
same,IC50,[3],0.091 mg/L
same,IC80,[3],0.387 mg/L
same,MPI,[3],100
same,IC50,[4],2.19 mg/L
same,IC80,[4],11.7 mg/L
same,MPI,[4],100
same,IC50,[5],1.42 mg/L
same,IC80,[5],7.51 mg/L
same,MPI,[5],100
same,IC50,[6],2.4 mg/L
same,IC80,[6],12 mg/L
same,MPI,[6],100
same,IC50,[7],0.248 mg/L
same,IC80,[7],1.17 mg/L
same,MPI,[7],100
same,IC50,[8],0.034 mg/L
same,IC80,[8],0.254 mg/L
same,MPI,[8],100
same,IC50,[9],0.55 mg/L
same,IC80,[9],2.65 mg/L
same,MPI,[9],100
same,IC50,[10],0.729 mg/L
same,IC80,[10],3.49 mg/L
same,MPI,[10],100
same,IC50,[11],4.86 mg/L
same,IC80,[11],13.2 mg/L
same,MPI,[11],100
same,IC50,[12],1.35 mg/L
same,IC80,[12],8.98 mg/L
same,MPI,[12],100
10E8 (antibody),"IC50, titer in TZM.bl cells",[13],0.107 mg/L
same,"IC80, titer in TZM.bl cells",[13],6.33 mg/L
same,"IC50, titer in TZM.bl cells",[14],0.665 mg/L
same,"IC80, titer in TZM.bl cells",[14],7.36 mg/L
same,"IC50, titer in TZM.bl cells",[15],0.061 mg/L
same,"IC80, titer in TZM.bl cells",[15],0.731 mg/L
same,"IC50, titer in TZM.bl cells",[16],0.274 mg/L
same,"IC80, titer in TZM.bl cells",[16],2.61 mg/L
same,"IC50, titer in TZM.bl cells",[17],0.778 mg/L
same,"IC80, titer in TZM.bl cells",[17],4.21 mg/L
N49P7.2 (antibody),IC50,[1],0.029 mg/L
same,IC80,[1],0.159 mg/L
same,MPI,[1],100
same,IC50,[2],0.033 mg/L
same,IC80,[2],0.129 mg/L
same,MPI,[2],100
same,IC50,[3],0.067 mg/L
same,IC80,[3],0.233 mg/L
same,MPI,[3],100
same,IC50,[4],0.166 mg/L
same,IC80,[4],1 mg/L
same,MPI,[4],100
same,IC50,[5],0.124 mg/L
same,IC80,[5],0.576 mg/L
same,MPI,[5],100
same,IC50,[6],0.058 mg/L
same,IC80,[6],0.21 mg/L
same,MPI,[6],100
same,IC50,[7],0.237 mg/L
same,IC80,[7],0.831 mg/L
same,MPI,[7],100
same,IC50,[8],0.051 mg/L
same,IC80,[8],0.2 mg/L
same,MPI,[8],100
same,IC50,[9],1.26 mg/L
same,IC80,[9],4.42 mg/L
same,MPI,[9],100
same,IC50,[10],0.119 mg/L
same,IC80,[10],0.564 mg/L
same,MPI,[10],100
same,IC50,[11],0.051 mg/L
same,IC80,[11],0.215 mg/L
same,MPI,[11],100
same,IC50,[12],0.559 mg/L
same,IC80,[12],4.53 mg/L
same,MPI,[12],100
N49P19 (antibody),IC50,[18],3.23 mg/L
same,IC80,[18],19 mg/L
same,MPI,[18],93
same,IC50,[19],> 50 mg/L
same,IC80,[19],> 50 mg/L
same,MPI,[19],9
same,IC50,[20],> 50 mg/L
same,IC80,[20],> 50 mg/L
same,MPI,[20],26
same,IC50,[21],11.2 mg/L
same,IC80,[21],> 50 mg/L
same,MPI,[21],63
same,IC50,[22],0.661 mg/L
same,IC80,[22],3.09 mg/L
same,MPI,[22],100
same,IC50,[23],3.89 mg/L
same,IC80,[23],48.8 mg/L
same,MPI,[23],80
same,IC50,[24],0.756 mg/L
same,IC80,[24],3.17 mg/L
same,MPI,[24],99
same,IC50,[25],0.682 mg/L
same,IC80,[25],3.05 mg/L
same,MPI,[25],100
same,IC50,[26],0.978 mg/L
same,IC80,[26],4.19 mg/L
same,MPI,[26],100
same,IC50,[27],3.94 mg/L
same,IC80,[27],25.7 mg/L
same,MPI,[27],87
same,IC50,[28],0.386 mg/L
same,IC80,[28],1.36 mg/L
same,MPI,[28],100
same,IC50,[29],20.2 mg/L
same,IC80,[29],> 50 mg/L
same,MPI,[29],68
same,IC50,[30],> 50 mg/L
same,IC80,[30],> 50 mg/L
same,MPI,[30],35
same,IC50,[31],1.4 mg/L
same,IC80,[31],3.76 mg/L
same,MPI,[31],99
same,IC50,[32],2.52 mg/L
same,IC80,[32],14.4 mg/L
same,MPI,[32],91
N49P9.1 (antibody),IC50,[18],0.17 mg/L
same,IC80,[18],0.579 mg/L
same,MPI,[18],100
same,IC50,[19],0.076 mg/L
same,IC80,[19],0.223 mg/L
same,MPI,[19],100
same,IC50,[20],1.35 mg/L
same,IC80,[20],8.26 mg/L
same,MPI,[20],95
same,IC50,[21],> 50 mg/L
same,IC80,[21],> 50 mg/L
same,MPI,[21],30
same,IC50,[22],0.323 mg/L
same,IC80,[22],1.13 mg/L
same,MPI,[22],100
same,IC50,[23],0.189 mg/L
same,IC80,[23],0.947 mg/L
same,MPI,[23],100
same,IC50,[24],0.068 mg/L
same,IC80,[24],0.478 mg/L
same,MPI,[24],100
same,IC50,[25],0.156 mg/L
same,IC80,[25],0.939 mg/L
same,MPI,[25],100
same,IC50,[26],0.085 mg/L
same,IC80,[26],0.227 mg/L
same,MPI,[26],100
same,IC50,[27],0.029 mg/L
same,IC80,[27],0.083 mg/L
same,MPI,[27],100
same,IC50,[28],0.062 mg/L
same,IC80,[28],0.218 mg/L
same,MPI,[28],100
same,IC50,[29],0.469 mg/L
same,IC80,[29],1.52 mg/L
same,MPI,[29],100
same,IC50,[30],> 50 mg/L
same,IC80,[30],> 50 mg/L
same,MPI,[30],5
same,IC50,[31],0.091 mg/L
same,IC80,[31],0.392 mg/L
same,MPI,[31],100
same,IC50,[32],0.143 mg/L
same,IC80,[32],0.476 mg/L
same,MPI,[32],100
